Data on 61 substances can be found in patent US10064928B2, “Peptides and combination of peptides for use in immunotherapy against CLL and other cancers” (IMMATICS BIOTECHNOLOGIES GMBH, priority 2015, dated 2018).

The assay addresses HLA-A*02:01 (Homo sapiens, UniProt P04439, D140Y/D185E/D98H/E176V/E277Q/G131W/G231S/I119V/I121R/I166T/I218V/L300P/L318F/N151K/N90K/P208A/P217A/Q86G/Q94H/R138H/R169H/T345S). The experiment in a line: MHC binding assay (UV-ligand exchange, beta2m ELISA). The conditions noted are these: binding of HLA-class I restricted peptides to HLA-A*02:01, β2m ELISA. An outline of the steps:
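Peptide–MHC complexes formed by UV-ligand exchange, cleaving a UV-sensitive peptide so the test peptide can bind. Exchange yield measured by ELISA: complexes captured on streptavidin-coated wells, diluted 100-fold, detected with HRP anti-β2m (1 h, 37 °C) and TMB at 450 nm, against refolded HLA-A*02:01/MLA-001 standards (15-500 ng/ml).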
In general terms: In an ELISA, binding on a coated surface is turned into a signal by an enzyme label.

As to “64 (KLLESVASA; listed as Homo sapiens) [compound 64]”, the “Peptide Exchange (MHC class I binding score, peptide exchange yield)” value (shortened to “Peptide Exchange”) is ““+++” (≥50 = +++)”.
As to “183 (VLMPTVYQQGV; listed as Homo sapiens) [compound 183]”, the “Peptide Exchange” value was ““+++” (≥50 = +++)”.
In the case of “314 (LMKDCEAEV; listed as Homo sapiens) [compound 314]” it was ““+++” (≥50 = +++)”; in that of “134 (MLLEHGITLV; listed as Homo sapiens) [compound 134]”, ““++++” (≥75% = ++++)”; in that of “299 (ILEENIPVL; listed as Homo sapiens) [compound 299]”, ““+++” (≥50 = +++)”.
“127 (LLPTAPTTV; listed as Homo sapiens) [compound 127]”: the “Peptide Exchange” value is listed as ““+++” (≥50 = +++)”.
As to “59 (FVFGDENGTVSL; listed as Homo sapiens) [compound 59]”, the “Peptide Exchange” value is reported as ““+++” (≥50 = +++)”.
The entry for “223 (ALWVSQPPEI; listed as Homo sapiens) [compound 223]” is ““+++” (≥50 = +++)”; for “95 (ILGYMAHEHKV; listed as Homo sapiens) [compound 95]” it is ““++” (≥20% = ++)”; for “385 (YTIPLAIKL; listed as Homo sapiens) [compound 385]” it is ““+++” (≥50 = +++)”.
For “280 (YTLDSLYWSV; listed as Homo sapiens) [compound 280]”, the “Peptide Exchange” value is reported as ““+++” (≥50 = +++)”.
On to “361 (ILQEFESKL; listed as Homo sapiens) [compound 361]”, for which the “Peptide Exchange” value is ““+++” (≥50 = +++)”.
The entry for “340 (KLLEEICNL; listed as Homo sapiens) [compound 340]” is ““++++” (≥75% = ++++)”; for “259 (RLLDEQFAVL; listed as Homo sapiens) [compound 259]” it is ““+++” (≥50 = +++)”; for “250 (LLVQEPDGLMV; listed as Homo sapiens) [compound 250]” it is ““+++” (≥50 = +++)”.
In the case of “40 (FLDEDDMSL; listed as Homo sapiens) [compound 40]” it was ““++” (≥20% = ++)”; in that of “136 (NLDKLWTLV; listed as Homo sapiens) [compound 136]”, ““++” (≥20% = ++)”.
“253 (NLWSVDGEVTV; listed as Homo sapiens) [compound 253]”: the “Peptide Exchange” value is on record as ““+++” (≥50 = +++)”.
For the substance “339 (GLWGTVVNI; listed as Homo sapiens) [compound 339]”, the “Peptide Exchange” value is reported as ““+++” (≥50 = +++)”.
On to “123 (LLLAEAELLTL; listed as Homo sapiens) [compound 123]”, for which the “Peptide Exchange” value was ““++” (≥20% = ++)”.
The entry for “176 (VLAEQNIIPSA; listed as Homo sapiens) [compound 176]” is ““+++” (≥50 = +++)”; for “8 (ALAASALPALV; listed as Homo sapiens) [compound 8]” it is ““+++” (≥50 = +++)”.
The entry for “6 (ALDTLEDDMTI; listed as Homo sapiens) [compound 6]” is ““+++” (≥50 = +++)”; for “349 (ALATHILSL; listed as Homo sapiens) [compound 349]” it is ““+++” (≥50 = +++)”; for “305 (LLFPQIEGIKI; listed as Homo sapiens) [compound 305]” it is ““+++” (≥50 = +++)”.
The entry for “131 (LQALEVLKI; listed as Homo sapiens) [compound 131]” is ““+” (≥10% = +)”; for “249 (LLPTGVFQV; listed as Homo sapiens) [compound 249]” it is ““+++” (≥50 = +++)”; for “42 (FLEEGGVVTV; listed as Homo sapiens) [compound 42]” it is ““+++” (≥50 = +++)”.
Turning to “179 (VLLGLEMTL; listed as Homo sapiens) [compound 179]”, the “Peptide Exchange” value is listed as ““+++” (≥50 = +++)”.
For the substance “3 (VIAELPPKV; listed as Homo sapiens) [compound 3]”, the “Peptide Exchange” value was ““++” (≥20% = ++)”.
In the case of “348 (ALAKPPVVSV; listed as Homo sapiens) [compound 348]” it was ““+++” (≥50 = +++)”; in that of “182 (VLLSVPGPPV; listed as Homo sapiens) [compound 182]”, ““+++” (≥50 = +++)”.
In the case of “83 (GQGEVLVYV; listed as Homo sapiens) [compound 83]”, the “Peptide Exchange” value is recorded as ““+++” (≥50 = +++)”.
As for “360 (HLIDTNKIQL; listed as Homo sapiens) [compound 360]”, the “Peptide Exchange” value is listed as ““+++” (≥50 = +++)”.
Take “72 (GLLDAGKMYV; listed as Homo sapiens) [compound 72]”: the “Peptide Exchange” value is given as ““+++” (≥50 = +++)”.
For the substance “84 (GVMDVNTAL; listed as Homo sapiens) [compound 84]”, the “Peptide Exchange” value is ““++” (≥20% = ++)”.
In the case of “107 (ILYNLYDLL; listed as Homo sapiens) [compound 107]” it was ““+++” (≥50 = +++)”.
In the case of “358 (FLTDYLNDL; listed as Homo sapiens) [compound 358]”, the “Peptide Exchange” value is ““+++” (≥50 = +++)”.
In the case of “106 (FMASHLDYL; listed as Homo sapiens) [compound 106]” it was ““+++” (≥50 = +++)”; in that of “338 (FLDMTNWNL; listed as Homo sapiens) [compound 338]”, ““++++” (≥75% = ++++)”; in that of “175 (FTVPRVVAV; listed as Homo sapiens) [compound 175]”, ““+++” (≥50 = +++)”.
On to “297 (FLVEPQEDTRL; listed as Homo sapiens) [compound 297]”, for which the “Peptide Exchange” value was ““+++” (≥50 = +++)”.
With “169 (TLLLGLTEV; listed as Homo sapiens) [compound 169]”, the “Peptide Exchange” value is listed as ““+++” (≥50 = +++)”.
As to “44 (FLLSINDFL; listed as Homo sapiens) [compound 44]”, the “Peptide Exchange” value is given as ““+++” (≥50 = +++)”.
As for “298 (IILPVEVEV; listed as Homo sapiens) [compound 298]”, the “Peptide Exchange” value is on record as ““+++” (≥50 = +++)”.
In the case of “214 (RLQELTEKL; listed as Homo sapiens) [compound 214]” it was ““+++” (≥50 = +++)”; in that of “9 (ALCDTLITV; listed as Homo sapiens) [compound 9]”, ““+++” (≥50 = +++)”; in that of “333 (VTLEFPQLIRV; listed as Homo sapiens) [compound 333]”, ““+++” (≥50 = +++)”.
As for “263 (SQWEDIHVV; listed as Homo sapiens) [compound 263]”, the “Peptide Exchange” value is ““+++” (≥50 = +++)”.
The entry for “177 (VLDDRELLL; listed as Homo sapiens) [compound 177]” is ““+++” (≥50 = +++)”.
Take “62 (GIIDGSPRL; listed as Homo sapiens) [compound 62]”: the “Peptide Exchange” value is reported as ““+++” (≥50 = +++)”.
In the case of “205 (GLSQANFTL; listed as Homo sapiens) [compound 205]” it was ““+++” (≥50 = +++)”; in that of “126 (LLPEGGITAI; listed as Homo sapiens) [compound 126]”, ““+++” (≥50 = +++)”.
The entry for “119 (VLPAEFFEV; listed as Homo sapiens) [compound 119]” is ““+++” (≥50 = +++)”.
With “195 (YLGGFALSV; listed as Homo sapiens) [compound 195]”, the “Peptide Exchange” value is recorded as ““++++” (≥75% = ++++)”.
The entry for “303 (ILSQPTPSL; listed as Homo sapiens) [compound 303]” is ““+++” (≥50 = +++)”; for “234 (GLDDAEYAL; listed as Homo sapiens) [compound 234]” it is ““++” (≥20% = ++)”; for “300 (ILLNPAYDVYL; listed as Homo sapiens) [compound 300]” it is ““+++” (≥50 = +++)”.
As for “206 (HMQDVRVLL; listed as Homo sapiens) [compound 206]”, the “Peptide Exchange” value is ““+++” (≥50 = +++)”.
The entry for “128 (LLSEEEYHL; listed as Homo sapiens) [compound 128]” is ““+++” (≥50 = +++)”; for “241 (ILGDILLKV; listed as Homo sapiens) [compound 241]” it is ““+++” (≥50 = +++)”.
